In the domain aggregation screens of Martell et al. (2025):

Assay: soluble fraction after stress (log2 fold change); higher = more stays soluble; pooled small domains, quantitative proteomics
Settings: stress: pH 4
In short: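 Aggregation propensity is read out as the fold change in how much of each domain remains soluble after acid stress. The custom small-domain libraries were pooled, held at pH 4 and analysed with high-throughput quantitative proteomics. On the log2 scale used, higher values mean more of the domain stayed soluble.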

Row | Sequence | soluble fraction (log2)
1 | HMRSREGVRWIIRERIMEELQERHHMDDGELLEMIDRSIGEMGQEIFLPLKERIWLRGSLFDSFR | -1.44
2 | HMSEYILATNDGEFLRITSYSKEEGGMLVWEKTSSIVSAEHKVIPYSQIINIKDRNGDVVWDKD | -0.0816
3 | HMQKNFYQILGVDSKASPATINAAYERAKSRVIQSGLEDPDTMALLRDAWETLADPGDRAAYDESLAT | -0.0938
4 | HMIVVMAADSSREDLDLVQGRIEARGLRAQISQGVERIVIGVLGSLPPDLKDEMELLPGVREVLVIS | -1.19
5 | HMSKKAIVINLLKRPDGASLKDIMQATYWQAHSVRGFISGSLTKKMGLNVESFKRPDGERAYRIN | 0.22
6 | HMLKREDEVIVVAGKDKGKRGTITQLVGDDRVIVAGVNMVKRHTKPNPNLGQPGGIVEREASLHISNV | -0.162
7 | HMTPLILTAQEGGERLDAFVASQVEDLTRSAAQRLLEQGAVTSGGKPLKKNAKTTPGMVVEVLLPDPQ | -0.0145
8 | HMDTRKEREIALYEAALRLIASGVNPAAMKVQQIADEAGIGKGTVYEYFASKEEILHGMALH | -0.36
9 | HMHRNLSFEEEKEFLSAYTKQAEAGQIVDLNEMKAAYIEKVGHSIGGSQIYRMLERHGWRKVM | -0.468
10 | HMKRQDFEFLVNLLRQNAGWDFDEEQYFVVDKKISNFIREKGYASVEDLIDELKVGAKPLISQVVESLAL | -2.01
11 | HMTMTKELGQRIRAERTARKMTQEELAERADLHPTYIGQVERGEKSLTIASLEKIVEGLGISFSDLFEN | -0.0395
12 | HMVLSTRERMSNILATLKGGHFVNFSDLFTPEEGRLGVVVTFLAMLELIKESLLDIVQHEVLGPIHVKARV | 0.0323
13 | HMGGKWKLRILWHIHHGDTRFSTLKRGIPEISEKILAQQLRELEEHQLIKRRVVTVMPPHVVYEL | -0.518
14 | HMVLTGTIKKYNNERGFGFISTSNFGDVFFHIKDFQKGEQPIPGREVYFEVVKKENKKRAIHVYYSD | -0.243
15 | HMADEIQLVVQVNGKLRGRIMVAPDASREEIEKTALADADVSRFLGDTPVKKVIIVPKRLVNIVAPAPK | 0.0692
16 | HMDELVYVPNITGKTVEEARTELQKRDLGLNIAGHQFSDEFGKGRIISQDPAAGSRLKVNRSISVIVSSGQ | 0.00524
17 | HMTEPLTKREKEVLLLLPRGLTAKAMASELFLTEATIKSHLAAIFRKFKVVNRTQAIAIAVESKILT | -1.1
18 | HMGIDSSVYVEARYELGHLYLKQKKYAAAYASFKEILDMYASTTPGVLPGAYNKLAEIGMKRIPKNKL | -0.182
19 | HMASVGTHIKRLRAAKRMTQEELAEQLHVTRQAVSAWETGKALPDVEMLERIAAALDADVTEVIYGA | -0.24
20 | HMSSKSLAALSPQEYRLLPLVAEGKTNKEIASALALSDKTVKNYLANIFSKLGITRRTQAATLYARAL | 0.252
21 | HMEKMLENIDLKAAVEALPEREKKVILLRYYRGMTQDAAAKVMKVSQVQISRIEKRAIEILREKL | -0.226
22 | HMKEVKPSDFFLSKLDEDHNLIEKFNALSSFKQKEFIEYIDSAKQEKTKHDRFEKIKPILLSNIGLNDKYR | -0.102
23 | HMTLHEAMEKLFRQVGRPMTTKEIAEKLNENKWYQKADGSPLTPYQIYGRAKNYPALFHREGSIIYLKGS | 0.136
24 | HMSAGISVADVTNRTYDEGYNTLTAQHLLVNKVYEANETIPLDTIIRTDPVAGTKVPDNTSITVYVSSGK | -0.025
25 | HMETIVGIDPDSKKKIVLKKGIKGRPDYLSFNKKNYSLPSELKEKNVSLEQALEIINDKKSNKKKIK | 0.201

Row | Sequence | soluble fraction (log2)
26 | HMDRTIGEIGLVTETIDSTLESGRVMVDGLSWKARTSDNTVLEAGTRVQVKEIHGVTLTVEKA | 0.147
27 | HMRRPRGVFNLVPRGFKRFGFITPDGGGEDMFAHLENVRAGHVVEDRNAVEYGIGRGPDGRDQAVDIVPVP | -0.112
28 | HMSKSIGEALKEERRSLGLTQEQFIKGIISESFYSKVERGKNEIVAVDLLKILAANNISEEEFLSKLN | -0.168
29 | HMAIQGVRLYERTLETGDPWLDRPLSTLSTGTRLIILVRRGGDVLIPKGDTVLLAGDTLVINDS | -1.94
30 | HMAQILEPSVALKKLLELKQAGFEDETLVGWIRKVEFTRPLTPDDLLEWKGAGISQAVIRAAM | 0.00449
31 | HMTPQEQWNNAYLLAKDYYDANGNLDIDEKYKTKDGFELGSWLTTQRNVYKRGKLSPEKTKKLEEIGISF | -0.107
32 | HMSLSEGVSADVVADVQARLMELGYMDEDDPDGNFSESTRIAVEHFQQQAGLPVTGTVDKATLDALNSPD | -0.231
33 | HMRSDSEIKEDVLDELMWQPNIDETQIGVIVEKGVVTLTGFVDAYAKKTAALDAVKNVKGVKAVANDIEV | -0.0968
34 | HMEVEADEFQQLLRSGEYVQALDRARANQDIGLRQQQIVQIARHQAASGIQAGAMGSLASLYQF | -0.461
35 | HMSSDLVDYLVKYVAIVDNQEIEIADSKIGTAELGTTVSEVAKTVGNYYPKATVLSVKITGRNQEIVFEY | -1.8
36 | HMDSVTLGISFNGKTRFTLDFPADAAAADIEKAALEAEQSQRYLEGMTVAKVIVVPGRIVNIVLK | -0.185
37 | HMIQYRKILELHFKDISQRTISTSVGSSRNTVSDVIKRSEQLGLERLTDNMNNRWLEEFLFPEKQ | -0.177
38 | HMSTIAAMADPRAWALEMLGFPPGTVKPSKREIQVRFRESLRDVHPDHGGDSRTASASINDLSEARRVLLS | 0.0192
39 | HMKELFGQRLREQRLKQNLTLEQLAEKANLSPNYVGMVERGLKEPGLATIVKLLNGLNVSADTLL | 0.155
40 | HMWGAYHDGQVVKFPKKVTVYVIDGQYKRPLANEFVLKFLNYKTSDIIIDKDGNLNNYKNGAVVEH | -0.332
41 | HMERLTVVPELLKRSLSEAQPLVTSARLRLEVSGGAPEDTSRAIVVGQKPPPGTRVQVGTTVIVTVQIQRP | -0.403
42 | HMGHEEPITFDRLPQAAQTFLKTHFDTLTVAYIVADRKFMGVEYEVKYTDRTEVDFRSDGQWESV | -0.443
43 | HMQNSLKAFRVKRGLTTSALSRLTNGEFSTSRISNYETGVRALTIDAAKKLAPHLGASPAQLLNL | 0.371
44 | HMDYYNILGVNKAATAQDIKRAYRKLAKEHHPDHGGDATRLQQVNEAYDTLKDPQRREQYDS | 0.0634
45 | HMSEFGENLKKLRTARDLTQQELGAKVGLSKAVVSKYENGLGYPTFDVLIRIAAYFGVTTDYLLGV | -0.309
46 | HMHKLTSRQEEILQFIKDYLSEIGYPPTRSEIAQKMGFRSTNAAEEHLRALARKGAIEILPGPSRGLRLP | -0.393
47 | HMARLEELSNGSIVEGLLSGEAVTVVSTKWYGSSSMEVFYKTNRGSTGSQILYREDEPSLTVLEKS | -0.425
48 | HMADLKRLNEQIHYLGQYLSTKATYKEFLQANNKKIYRSEHQDEIAKYEEAAQFLKRSSPDGTIPTMKDLR | 0.0861
49 | HMNTDEYEQKRGEILDAAQRLIYTKGYERMSIQDILDELKISKGAFYHYFDSKQSLLEALTARMMTE | -0.408
50 | HMLFYSDLVRLISFAEATLGKNEFETWYMSHHQGMKYTEIAIALGISVRTVEDRIARTKNHFRKI | -1

Row | Sequence | soluble fraction (log2)
51 | HMSAEAYLSFVKKENLRAAVVNYENNKEWLKDVPHERLLDLAVFAKVDMGEPGMSMKFNNWLLSR | -1.12
52 | HMQMMDATLKIPPSMGKLRGTLYELNSVTSEDVDENGQLALHVRLSSVDWQRLKKRFDSNLDELIVQKN | -0.427
53 | HMDYYASVDQVWRELGLAGPARRALIDDGLFKLSDLRKTSLAAVKELHGMGPNAIRILTTEMKKADLSFR | ≥ 0.43
54 | HMHPKDVPTRRELEVLQAVSEGLSTAEIGLRLDITENTVETFRRRLIQKFDAKNAIDLVVKAMAQGWIKV | -0.255
55 | HMQDTIDLVIQVNGKLRGQMNVPKDTDRATIEQLAINLENVQKIVAGNAIKKIIIVPGRLINIVVSKNL | -0.209
56 | HMDAIDPKTVTSWADLWKPEYKSSLLLTDDAREVFQMALRKLGYSGNTTDPKEIEAAYNELKKLMPNVAAF | -0.474
57 | HMDNIGKTLGQNQTRQYKVAYAEAAKLPAIIMGLVPLPKPPVVDERLRSLYVTATPEQHRQIETLMNRI | -0.64
58 | HMQSTEQVSVTVTIPPGGELRIDSDTFRVLLNGENVLDKQSGDWLMLSRDLLYLDIESAIGNGLSGNLIYT | -0.143
59 | HMPEMHIYTKEGKIHITHIDENEEIKIYNPLGQIIYTGSPQDIPVLEGKGLYIIYIGKSAVEVLES | -0.624
60 | HMNVPYEMVTQNGEVFYKYKVQPGEGVFAVSRTFSVSVAEILRVNPEANKGLKNGQVLLIPVPKDMIA | -0.147
61 | HMRLDVALRGVLLDGDPTQSRAFVLVSGTTSTYRLGETVQSAELVAINADTITLRTETGLHVIGFDGLI | -2.11
62 | HMASEKSEQLYQQMKLDIAGMPPDTRLPSIRALMRSYSVSQLLIDRTLGRLREEGALRKRFDGLYTYL | -0.0945
63 | HMVQIFIPVVHDDHWFLIVFSREEDTFYVLDSLPSLSRISTINGIISTLKEHLQQASVGPQYSVKVLPVK | 0.144
64 | HMKKPLEYIDVDKREDFPPVPNGMRYIHFYGGTKNYRAYIAPEDISRADFMEQYPEYVPEHN | 0.0177
65 | HMKEGTIPPVVNRTLSDAEFVLKSYGYELGRVSEQHSDMPKDIVIKQSPEAGTVADPGTRVDVVVSIGKA | 0.0175
66 | HMDFSVTIKGTSFPVMVSLKKMKQVRLKVFPSGEIKLSAPVGTPEKWIVEYLNDKMSWIEEKMDLFVQ | -0.395
67 | HMDKVVGSAGDVTSRITANSGEVKIDGQIWQARSYDETIAIEAGEKIEVFDLDGITLIVYPI | -1.19
68 | HMSTLTLTSGTYAVGENIKAGKYTIMGSGSIAISSSGKARVNSNLTADRKDYVLNDDETIKIKGKAQFIPI | 0.0425
69 | HMFDGYQWLKRDIIRGVYQPEEKLRMSLLTNRYGLGVGPLREALSQLVAEHLVTVVSQKGYRVAPM | -0.0817
70 | HMKTKKYKGVYKDSKGKIYFQIELGVDPITGKRIQKKGRKNQQGLPFNSFKEAYEEILRLKHEFVNSTIN | 0.00285
71 | HMTSKTLSADGGENTRLDKFLSNHLPEISRTKIQKMINDGLVYVNQNYAKASLVLDGTELISYTIPD | 0.263
72 | HMTSSQLNIEELERRMMMHLEQNGFITRSIYTNLTGRLKWKATEDLKIFVEKGLIRKMGRGNQMYYVKVE | -0.895
73 | HMDRERFIKLGREIARAAFENVGKKATDKVLNSAAKKLRLEDGDEVLARLGSAEIEARSVVQAVYPDLI | 0.336
74 | HMEYTVNHYPEKHRFEVVEDGLTAYVEYRLRGDALDIIHTIVPKNLEGRGIAATLVETAYKYAKEQ | -1.35
75 | HMRDLITYVVQINGKLRGKLEVAPDTDPEELKALALEVENVKRSLEGWVVKKVIVVPGKMVSIAAG | -0.105
